Drawing on PMC9342713, this text covers binding for 2 sequences.

This data set concerns the target T1, DitR (Stenotrophomonas maltophilia K279a) (UniProt B2FL17).
T1 sequence: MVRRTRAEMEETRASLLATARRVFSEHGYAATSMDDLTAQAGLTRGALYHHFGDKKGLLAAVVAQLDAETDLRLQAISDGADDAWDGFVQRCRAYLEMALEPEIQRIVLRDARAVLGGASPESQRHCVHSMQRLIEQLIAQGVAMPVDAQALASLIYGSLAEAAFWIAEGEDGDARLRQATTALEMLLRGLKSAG
In words: DNase I footprinting.

On to “GGGGGCGGCGAACAGGTCGCGGTAGGGGGTGGCCATCGGGATCTCCAGGGCAGCGGCTTGCCTGGCGCTCCCGGCGCCACGACAATACATACAGAGCGTATGAATAAGAGCCTACATTCATACGCGTCGTATGTAAATAATCATGCACTGCGTATGTAAGGAGCTCCGGATGGTCCGTCGCACCCGCGCCGAAATGGAAGAAAC (double strand) [mfsBC promoter fragment, 204 bp, Box II]”, for which the binding entry is reported as “binds”.
The entry for “GGGGGCGGCGAACAGGTCGCGGTAGGGGGTGGCCATCGGGATCTCCAGGGCAGCGGCTTGCCTGGCGCTCCCGGCGCCACGACAATACATACAGAGCGTATGAATAAGAGCCTACATTCATACGCGTCGTATGTAAATAATCATGCACTGCGTATGTAAGGAGCTCCGGATGGTCCGTCGCACCCGCGCCGAAATGGAAGAAAC (double strand) [mfsBC promoter fragment, 204 bp, Box I]” is “binds”.
